Test results: paper PMC11889166

Tests used:
[1] = biological target: EYFP-CD74minRTS (pEYFP-C1-CD74minRTS) (human) (UniProt P04233); assay: FRET or BRET; FLIM-FRET in live HEK293 cells co-transfected with ECFP-CXCR4 and EYFP-CD74, monitored at one-minute intervals during exposure to MIF-2 (4 nM, 10 min, 37 °C); MIF (8 nM) as comparison reduced the lifetime to a lesser extent
[2] = biological target: EYFP-CD74minRTS (pEYFP-C1-CD74minRTS) (human) (UniProt P04233); assay: FRET or BRET; FLIM-FRET (TCSPC, two-photon microscope, FALCON) in fixed HEK293 cells co-transfected with ECFP-CXCR4 (donor) and EYFP-CD74 (acceptor)
[3] = biological target: EYFP-CD74minRTS (pEYFP-C1-CD74minRTS) (human) (UniProt P04233); assay: FRET or BRET; FLIM-FRET (TCSPC, two-photon microscope, FALCON) in fixed Huh-7 cells co-transfected with ECFP-CXCR4 (donor) and EYFP-CD74 (acceptor); donor-alone lifetime 2.52 ns used; also with MIF-2 stimulation before fixation (FRET efficiency increased)

Sequence of UniProt P04233 (P04233 whole entry): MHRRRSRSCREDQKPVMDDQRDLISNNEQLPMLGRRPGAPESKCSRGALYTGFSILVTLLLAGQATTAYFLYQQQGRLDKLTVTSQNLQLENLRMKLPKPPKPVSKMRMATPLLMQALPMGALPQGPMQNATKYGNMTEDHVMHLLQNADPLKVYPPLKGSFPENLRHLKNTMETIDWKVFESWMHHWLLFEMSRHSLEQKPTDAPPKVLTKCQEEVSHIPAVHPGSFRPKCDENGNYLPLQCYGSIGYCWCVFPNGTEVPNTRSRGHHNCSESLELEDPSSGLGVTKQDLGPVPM

fluorescence lifetime of the donor ECFP-CXCR4 with the acceptor, after MIF-2 stimulation [1]: 2 ns
FRET efficiency [2]: 50%
FRET efficiency [3]: 17 to 20%
Substance: ECFP-tagged CXCR4 (pECFP-N1-CXCR4) (from UniProt P61073 1-352) (receptor)
